Data on two substances can be found in patent US20120071394A1.

For this experiment, the target named is human C5a receptor (C5aR) (human) (UniProt P21730). Description: cell-based or functional assay.
Chain of human C5a receptor (C5aR) (human) (P21730 whole entry): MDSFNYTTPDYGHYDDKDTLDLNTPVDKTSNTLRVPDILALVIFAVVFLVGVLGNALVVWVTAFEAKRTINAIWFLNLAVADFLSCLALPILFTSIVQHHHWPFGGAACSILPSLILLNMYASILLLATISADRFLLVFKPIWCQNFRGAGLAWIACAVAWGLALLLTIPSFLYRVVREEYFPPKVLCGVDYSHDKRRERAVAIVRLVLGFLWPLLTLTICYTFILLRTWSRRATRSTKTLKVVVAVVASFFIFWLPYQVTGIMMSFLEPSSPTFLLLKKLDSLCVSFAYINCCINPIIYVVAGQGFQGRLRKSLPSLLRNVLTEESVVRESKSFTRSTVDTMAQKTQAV

For the substance ADC-1004 (from UniProt A6QIG7 59-138), the C5aR blocking activity (in neutrophils), % of wt CHIPS1-121 (% of wt CHIPS1-121) is more than 50; the Chemotaxis IC50 is 49 nM; the IC50 of inhibition of calcium release, ratio to CHIPS1-121 (fold of the IC50 of CHIPS1-121) came to 2; the IC50 of inhibition of neutrophil migration towards C5a, ratio to CHIPS1-121 (fold of the IC50 of CHIPS1-121) was 4. For the same substance, the concentration needed for 50% inhibition of calcium release (IC50), neutrophils stimulated with C5a stood at 0.4 nM.

As for “Wild-type CHIPS1-121 (Chemotaxis Inhibitory Protein of Staphylococcus aureus) (from UniProt A6QIG7 29-149)”, the Chemotaxis IC50 turned out to be 8.2 nM.
